Assays:
[1] = target: hCMV envelope glycoprotein B (gB) of hCMV strain AD169 (hCMV strain AD169, UniProt P06473 32-906); experiment: cell-based or functional assay
[2] = target: hCMV envelope glycoprotein B (gB) of hCMV strain VR1814 (hCMV strain VR1814); experiment: cell-based or functional assay
[3] = target: T1, recombinant autologous interstrain fusion antigen CG3 (hCMV strain AD169; hCMV strain Towne, UniProt P06473 27-84; P13201 27-84); experiment: ELISA of the subculture supernatant on the gB recombinant antigen (CG3)
T1 construct: domain: gB Antigenic Domain 2 (AD2); Antigen of the commercial gB(AD2) ELISA (Biotest, Cat. No. 807035; Rothe M et al., 2001); also called CG3 antigen; gB(AD2)

| Binder | hCMV neutralizing activity, dose-response, HELF cells with hCMV strain AD169 (1,000 PFU/reaction), IC50 [1] | hCMV neutralizing activity, dose-response, HUVEC cells with hCMV strain VR1814 (1,000 PFU/reaction), IC50 [2] | binding result [3] |
| --- | --- | --- | --- |
| 8C10 antibody (antibody, V domains shown) VH: EVQLVQSGAEVKKPGESLKISCKGSGYTFANYWIAWVRQMPGKGLEWMGIIYPGDSDTRYSPSFQGQVTISADKSFHTVYLQWSSLKASDTAIYFCASTSYYDFWSGYHRGREHYYYGMEVWGQGTTVIVSS VL: TQSPATLSLSPGERVTLSCRASQSVYNYLAWYQQKPGQAPRLLIYDASNRATGIPARFSGSGSGTDFTLTISSLEPEDFAVYYCQLRRGTFGQGTKVEIKR | 0.82 µg/mL | 0.67 µg/mL |  |
| 37B7 antibody (antibody, V domains shown, also called antibody secreted by the 37B7 subculture) VH: QVQLVQSGGEVKKPGASVKVSCKASGYTFTSSGINWVRQAPGQGLEWMGWINTYNGNTKYAQRLQGRVTMTTDTSTDTAYMELRSLRSDDTAVYYCARDGLNWGWGDYWGQGTLVTVSS VL: TQSPSTLSASVGDRVIITCRASQSISSWLAWYQQKPGKAPKLLIYKASSLESGVPSRFSGSGSGTEFTLTISSLQPDDFASYYCQQCKGYPYTFGQGTKLEIKR |  |  | no binding |

From patent publication US20110171233A1 (RIBOVAX BIOTECHNOLOGIES S A, published 2011)
